Assay results published in patent US20240150422A1 (ONKO INNATE, published 2024).
Each block holds one binder with its values, some of them ahead of it.

B3: truncated form of the IL-12Rβ2 extracellular region (domains 1-3) (receptor)
chain: KIDACKRGDVTVKPSHVILLGSTVNITCSLKPRQGCFHYSRRNKLILYKFDRRINFHHGHSLNSQVTGLPLGTTLFVCKLACINSDEIQICGAEIFVGVAPEQPQNLSCIQKGEQGTVACTWERGRDTHLYTEYTLQLSGPKNLTWQKQCKDIYCDYLDFGINLTPESPESNFTAKVTAVNSLGSSSSLPSTFTFLDIVRPLPPWDIRIKFQKASVSRCTLYWRDEGLVLLNRLRYRPSNSRLWNMVNVTKAKGRHDLLDLKPFTEYEFQISSKLHLYKGSWSDWSESLRAQTPEE
notes: also called interleukin 12 receptor beta 2

Legend:
[1] = molecular target: IL-12 receptor on HEK-Blue IL-12 cells (InvivoGen) (human, UniProt P42701 24-662; Q99665 24-862); experiment: cell-based or functional assay
[2] = molecular target: B3; experiment: SPR (Biacore T100, 20 C); IL-12 Fc captured on a protein A chip (190 RU), IL-12Rbeta2 (domains 1-3) as analyte; 1:1 Langmuir model
Protocol: (§1) SPR measurements were recorded on a Biacore T100 at 20° C. in a buffer comprising 20 mM sodium phosphate pH 7.4, 150 mM NaCl and 0.05% Tween20. […] Following a 300 second dissociation phase, the remaining bound IL-12Rβ2 was washed off the chip using 50 mM Glycine pH 2.5, followed by 50 mM NaOH (30 second injections for each). Kinetic parameters were calculated using BIAevaluation software using a 1:1 Langmuir model, following subtraction of binding to a reference flow cell containing an isotype control antibody.

[3] = molecular target: T1, wild-type IL-12 heterodimeric Fc fusion protein (IgG1Fc(knob)-IL12p35 / IgG1Fc(hole)-IL12p40) (human, UniProt P29459 23-219; P29460 23-328); experiment: SPR as in Example 3; immobilized IL-12 Fc, IL-12Rbeta2 injected at 0.7-500 nM
T1 construct: also called wild-type IL-12 Fc; IL-12 Fc wt; not shown: human IgG1 Fc (knob) with artificial disulfide and N297G; human IgG1 Fc (hole) with artificial disulfide and N297G
T1 sequence 1: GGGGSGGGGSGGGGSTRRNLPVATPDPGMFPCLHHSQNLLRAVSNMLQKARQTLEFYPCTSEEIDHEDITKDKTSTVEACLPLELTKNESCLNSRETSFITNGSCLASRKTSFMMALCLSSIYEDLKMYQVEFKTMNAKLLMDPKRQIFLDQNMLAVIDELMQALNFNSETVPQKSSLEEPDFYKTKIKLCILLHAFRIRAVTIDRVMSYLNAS
T1 sequence 2: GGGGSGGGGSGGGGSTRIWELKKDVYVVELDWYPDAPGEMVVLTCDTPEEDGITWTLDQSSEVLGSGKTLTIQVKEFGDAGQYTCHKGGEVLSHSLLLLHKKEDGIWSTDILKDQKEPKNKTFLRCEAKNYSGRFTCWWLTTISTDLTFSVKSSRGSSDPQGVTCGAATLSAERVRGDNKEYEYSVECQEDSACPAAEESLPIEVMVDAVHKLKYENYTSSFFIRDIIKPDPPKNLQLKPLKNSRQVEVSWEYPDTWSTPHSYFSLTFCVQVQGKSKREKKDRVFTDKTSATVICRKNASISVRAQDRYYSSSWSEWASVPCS

[4] = molecular target: T1, wild-type IL-12 heterodimeric Fc fusion …; experiment: SPR (Biacore T100, 20 °C), IL-12 Fc captured on protein A chip, IL-12Rβ2 domains 1-3 as analyte, 1:1 Langmuir model
Protocol: as §1

[5] = molecular target: B3; experiment: SPR (Biacore T100, 20 C); IL-12 Fc captured on a protein A chip (230 RU), IL-12Rbeta2 (domains 1-3) as analyte; 1:1 Langmuir model
Protocol: as §1

[6] = molecular target: B3; experiment: SPR (Biacore T100, 20 C); IL-12 Fc captured on a protein A chip (220 RU), IL-12Rbeta2 (domains 1-3) as analyte; 1:1 Langmuir model
Protocol: as §1

- HEK-Blue IL-12 reporter assay, fold reduction in EC50 value [1]: ~16 fold (vs wild-type)
B1: IL-12 Fc K170A mutant (Fc-C-terminal fusion format of Example 1) (Fc fusion, not shown: a dimerising Fc or GST)
chain 1: GGGGSGGGGSGGGGSTRRNLPVATPDPGMFPCLHHSQNLLRAVSNMLQKARQTLEFYPCTSEEIDHEDITKDKTSTVEACLPLELTKNESCLNSRETSFITNGSCLASRKTSFMMALCLSSIYEDLKMYQVEFKTMNAKLLMDPKRQIFLDQNMLAVIDELMQALNFNSETVPQKSSLEEPDFYKTAIKLCILLHAFRIRAVTIDRVMSYLNAS
chain 2: GGGGSGGGGSGGGGSTRIWELKKDVYVVELDWYPDAPGEMVVLTCDTPEEDGITWTLDQSSEVLGSGKTLTIQVKEFGDAGQYTCHKGGEVLSHSLLLLHKKEDGIWSTDILKDQKEPKNKTFLRCEAKNYSGRFTCWWLTTISTDLTFSVKSSRGSSDPQGVTCGAATLSAERVRGDNKEYEYSVECQEDSACPAAEESLPIEVMVDAVHKLKYENYTSSFFIRDIIKPDPPKNLQLKPLKNSRQVEVSWEYPDTWSTPHSYFSLTFCVQVQGKSKREKKDRVFTDKTSATVICRKNASISVRAQDRYYSSSWSEWASVPCS

- HEK-Blue IL-12 reporter assay, fold reduction in potency [1]: ~2 fold (vs IL-12 Fc w.t.)
- Kd [2]: 44.3 nM
B2: IL-12 Fc single mutant P127A (Fc-C-terminal fusion format of Example 1) (Fc fusion)
chain 1: GGGGSGGGGSGGGGSTRRNLPVATPDPGMFPCLHHSQNLLRAVSNMLQKARQTLEFYPCTSEEIDHEDITKDKTSTVEACLPLELTKNESCLNSRETSFITNGSCLASRKTSFMMALCLSSIYEDLKMYQVEFKTMNAKLLMDAKRQIFLDQNMLAVIDELMQALNFNSETVPQKSSLEEPDFYKTKIKLCILLHAFRIRAVTIDRVMSYLNAS
chain 2: GGGGSGGGGSGGGGSTRIWELKKDVYVVELDWYPDAPGEMVVLTCDTPEEDGITWTLDQSSEVLGSGKTLTIQVKEFGDAGQYTCHKGGEVLSHSLLLLHKKEDGIWSTDILKDQKEPKNKTFLRCEAKNYSGRFTCWWLTTISTDLTFSVKSSRGSSDPQGVTCGAATLSAERVRGDNKEYEYSVECQEDSACPAAEESLPIEVMVDAVHKLKYENYTSSFFIRDIIKPDPPKNLQLKPLKNSRQVEVSWEYPDTWSTPHSYFSLTFCVQVQGKSKREKKDRVFTDKTSATVICRKNASISVRAQDRYYSSSWSEWASVPCS
notes: not shown: human IgG1 Fc (knob) with artificial disulfide and N297G; human IgG1 Fc (hole) with artificial disulfide and N297G

Binder: B3
- Kd [3]: 53.2 nM
- Kd [4]: 13.1 nM

- HEK-Blue IL-12 reporter assay, fold reduction in EC50 value [1]: ~17 fold (vs IL-12 Fc w.t.)
- HEK-Blue IL-12 reporter assay, fold reduction in potency [1]: ~29 fold (vs IL-12 Fc w.t.)
B4: IL-12 Fc single mutant Y40A (Fc-C-terminal fusion format of Example 1) (Fc fusion, not shown: a dimerising Fc or GST)
chain 1: GGGGSGGGGSGGGGSTRRNLPVATPDPGMFPCLHHSQNLLRAVSNMLQKARQTLEFAPCTSEEIDHEDITKDKTSTVEACLPLELTKNESCLNSRETSFITNGSCLASRKTSFMMALCLSSIYEDLKMYQVEFKTMNAKLLMDPKRQIFLDQNMLAVIDELMQALNFNSETVPQKSSLEEPDFYKTKIKLCILLHAFRIRAVTIDRVMSYLNAS
chain 2: GGGGSGGGGSGGGGSTRIWELKKDVYVVELDWYPDAPGEMVVLTCDTPEEDGITWTLDQSSEVLGSGKTLTIQVKEFGDAGQYTCHKGGEVLSHSLLLLHKKEDGIWSTDILKDQKEPKNKTFLRCEAKNYSGRFTCWWLTTISTDLTFSVKSSRGSSDPQGVTCGAATLSAERVRGDNKEYEYSVECQEDSACPAAEESLPIEVMVDAVHKLKYENYTSSFFIRDIIKPDPPKNLQLKPLKNSRQVEVSWEYPDTWSTPHSYFSLTFCVQVQGKSKREKKDRVFTDKTSATVICRKNASISVRAQDRYYSSSWSEWASVPCS

- Kd [5]: 130 nM
B5: IL-12 Fc single mutant K168A (Fc-C-terminal fusion format of Example 1) (Fc fusion)
chain 1: GGGGSGGGGSGGGGSTRRNLPVATPDPGMFPCLHHSQNLLRAVSNMLQKARQTLEFYPCTSEEIDHEDITKDKTSTVEACLPLELTKNESCLNSRETSFITNGSCLASRKTSFMMALCLSSIYEDLKMYQVEFKTMNAKLLMDPKRQIFLDQNMLAVIDELMQALNFNSETVPQKSSLEEPDFYATKIKLCILLHAFRIRAVTIDRVMSYLNAS
chain 2: GGGGSGGGGSGGGGSTRIWELKKDVYVVELDWYPDAPGEMVVLTCDTPEEDGITWTLDQSSEVLGSGKTLTIQVKEFGDAGQYTCHKGGEVLSHSLLLLHKKEDGIWSTDILKDQKEPKNKTFLRCEAKNYSGRFTCWWLTTISTDLTFSVKSSRGSSDPQGVTCGAATLSAERVRGDNKEYEYSVECQEDSACPAAEESLPIEVMVDAVHKLKYENYTSSFFIRDIIKPDPPKNLQLKPLKNSRQVEVSWEYPDTWSTPHSYFSLTFCVQVQGKSKREKKDRVFTDKTSATVICRKNASISVRAQDRYYSSSWSEWASVPCS
notes: as for B2

- Kd [6]: 42.9 nM
B6: IL-12 Fc single mutant D126A (Fc-C-terminal fusion format of Example 1) (Fc fusion)
chain 1: GGGGSGGGGSGGGGSTRRNLPVATPDPGMFPCLHHSQNLLRAVSNMLQKARQTLEFYPCTSEEIDHEDITKDKTSTVEACLPLELTKNESCLNSRETSFITNGSCLASRKTSFMMALCLSSIYEDLKMYQVEFKTMNAKLLMAPKRQIFLDQNMLAVIDELMQALNFNSETVPQKSSLEEPDFYKTKIKLCILLHAFRIRAVTIDRVMSYLNAS
chain 2: GGGGSGGGGSGGGGSTRIWELKKDVYVVELDWYPDAPGEMVVLTCDTPEEDGITWTLDQSSEVLGSGKTLTIQVKEFGDAGQYTCHKGGEVLSHSLLLLHKKEDGIWSTDILKDQKEPKNKTFLRCEAKNYSGRFTCWWLTTISTDLTFSVKSSRGSSDPQGVTCGAATLSAERVRGDNKEYEYSVECQEDSACPAAEESLPIEVMVDAVHKLKYENYTSSFFIRDIIKPDPPKNLQLKPLKNSRQVEVSWEYPDTWSTPHSYFSLTFCVQVQGKSKREKKDRVFTDKTSATVICRKNASISVRAQDRYYSSSWSEWASVPCS
notes: as for B2
